The values below come from patent US20080200416A1 (Stanford University, published 2008).

The test concerns the target T1, SHP-2 (mouse, UniProt P35235 2-593, limits assumed).
T1 construct: Endogenous protein probed in anti-Lck immunoprecipitates; also called tyrosine phosphatase SHP-2
T1 sequence (looked up): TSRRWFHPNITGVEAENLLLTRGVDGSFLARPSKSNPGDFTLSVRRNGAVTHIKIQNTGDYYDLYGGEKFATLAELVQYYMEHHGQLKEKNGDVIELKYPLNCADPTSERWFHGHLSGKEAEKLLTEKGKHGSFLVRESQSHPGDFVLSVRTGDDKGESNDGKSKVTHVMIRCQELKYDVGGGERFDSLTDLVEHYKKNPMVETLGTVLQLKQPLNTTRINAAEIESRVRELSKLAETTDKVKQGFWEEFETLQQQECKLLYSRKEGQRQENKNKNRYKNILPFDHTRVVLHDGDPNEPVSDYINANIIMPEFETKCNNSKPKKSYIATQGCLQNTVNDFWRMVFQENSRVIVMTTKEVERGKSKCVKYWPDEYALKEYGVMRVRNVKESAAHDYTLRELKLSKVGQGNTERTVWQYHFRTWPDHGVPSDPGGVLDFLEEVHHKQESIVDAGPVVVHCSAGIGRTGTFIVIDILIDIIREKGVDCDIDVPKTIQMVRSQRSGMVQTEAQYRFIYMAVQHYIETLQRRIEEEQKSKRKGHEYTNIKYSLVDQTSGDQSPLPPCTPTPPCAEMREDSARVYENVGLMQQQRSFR
Briefly: co-immunoprecipitation with anti-Lck from 5C.C7 T cell lysates, Western blot. On the procedure: (A) Western blot analyses of anti-Lck immuno-precipitates to detect site-specific phosphorylation. Phosphorylation of Lck at the activating Y394 or inhibitory Y505 before antigen stimulation were probed with specific antibodies. […] Membranes were stripped and re-probed for Lck as loading controls. (B) Induction of ERK phosphorylation by the antagonist MCC 99R. Virally-infected T cells were mixed with CH27 cells alone or CH27 cells preloaded with 10 μM MCC 99R, spun down to facilitate rapid T:APC contact, incubated at 37° C. for 5 minutes, and analyzed for ERK phosphorylation by Phosphor-Flow. Cells were gated on GFP and CD4 for virally-infected T cells. […] (D) Western blot analyses of anti-Lck immuno-precipitates to detect Lck serine phosphorylation before antigen stimulation. […] Double selected 5C.C7 T cells were mixed with peptide pre-loaded CH27 cells (10 μM MCC 99R or 1 μM MCC) by quick spin and incubated at 37° C. for 5 mins. SHP-1 was co-precipitated with Lck whereas SHP-2 was undetectable under the same condition.
For orientation: A western blot detects proteins with antibodies after separation by electrophoresis.

B1: Lck (enzyme, mouse, UniProt P06240 2-509, looked up)
chain: GCVCSSNPEDDWMENIDVCENCHYPIVPLDSKISLPIRNGSEVRDPLVTYEGSLPPASPLQDNLVIALHSYEPSHDGDLGFEKGEQLRILEQSGEWWKAQSLTTGQEGFIPFNFVAKANSLEPEPWFFKNLSRKDAERQLLAPGNTHGSFLIRESESTAGSFSLSVRDFDQNQGEVVKHYKIRNLDNGGFYISPRITFPGLHDLVRHYTNASDGLCTKLSRPCQTQKPQKPWWEDEWEVPRETLKLVERLGAGQFGEVWMGYYNGHTKVAVKSLKQGSMSPDAFLAEANLMKQLQHPRLVRLYAVVTQEPIYIITEYMENGSLVDFLKTPSGIKLNVNKLLDMAAQIAEGMAFIEEQNYIHRDLRAANILVSDTLSCKIADFGLARLIEDNEYTAREGAKFPIKWTAPEAINYGTFTIKSDVWSFGILLTEIVTHGRIPYPGMTNPEVIQNLERGYRMVRPDNCPEELYHLMMLCWKERPEDRPTFDYLRSVLDDFFTATEGQYQPQP
notes: Endogenous protein in T cell lysates; the phosphorylation state varies with the condition
As to B1, the binding result is “no binding”.
